Assay results reported in patent US20250057918A1 (YALE UNIVERSITY, published 2025).

Key:
[1] = molecular target: T1, mouse IL-18BP (amino acids 31-194) (mouse, UniProt Q9Z0M9 29-193, biotinylated on the AviTag (BirA ligase)); test: SPR; KD IL-18BP / KD IL-18Rα
T1 construct: Secreted decoy receptor; made in Expi293 cells (H7 signal peptide); the stated range is the same as for the human protein; also called mIL-18BP
T1 sequence: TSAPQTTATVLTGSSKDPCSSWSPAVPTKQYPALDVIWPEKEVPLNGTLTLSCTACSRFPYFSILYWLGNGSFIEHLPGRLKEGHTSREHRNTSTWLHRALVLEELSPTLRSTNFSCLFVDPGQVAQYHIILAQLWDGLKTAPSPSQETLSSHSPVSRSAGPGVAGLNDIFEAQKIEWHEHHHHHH
Description: (§1) By contrast, very little binding is observed with the same variants and mIL-18BP (right). (FIG. 11B) Representative surface plasmon resonance sensorgrams between immobilized biotinylated mIL-18BP and the murine DR-IL-18 variants.
(§2) Experiments were conducted using a Biacore™ T100 (Protein analysis interaction system) and carried out at 25° C. Biotinylated IL-18Rα or TL-18BP were immobilized onto a Biacore™ biotin capture chip (Series S CAP sensor chip, GE Healthcare) to yield an Rmax of ˜50 RU (IL-18Rα) or ˜10 RU (IL-18BP). Measurements were made with serial dilutions of the IL-18 variants in HEPES buffered Saline-P+ buffer (10 mM HEPES pH 7.4, 150 mM NaCl, 0.005% surfactant P20). The surface was regenerated by three 60-see injections of regeneration buffer (3/4 (v/v) 8M guanidine hydrochloride with 1/4 (v/v) 1M sodium hydroxide). Experiments were performed in multiple channels simultaneously for increased observations. All data were analyzed with the Biacore™ T100 evaluation software version 2.0 with a 1:1 Langmuir binding model.

[2] = molecular target: T2, mouse IL-18Rα ectodomain (amino acids 19-329) (mouse, UniProt Q61098 19-329, biotinylated on the AviTag (BirA ligase)); test: flow cytometry, mIL-18Rα titrated on yeast-displayed murine IL-18 variant (binding isotherm, %Max)
T2 construct: range 19-329; Secreted from Expi293 cells (H7 signal peptide); also called mIL-18Rα; Ra
T2 sequence: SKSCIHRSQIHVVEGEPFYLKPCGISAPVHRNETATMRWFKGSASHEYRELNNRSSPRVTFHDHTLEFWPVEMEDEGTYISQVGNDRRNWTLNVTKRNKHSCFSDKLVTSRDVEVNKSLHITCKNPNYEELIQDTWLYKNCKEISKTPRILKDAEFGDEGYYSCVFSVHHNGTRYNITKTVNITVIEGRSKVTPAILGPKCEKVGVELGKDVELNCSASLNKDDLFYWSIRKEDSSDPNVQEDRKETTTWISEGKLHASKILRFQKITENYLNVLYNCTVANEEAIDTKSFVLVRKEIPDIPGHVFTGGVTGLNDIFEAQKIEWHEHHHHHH

[3] = molecular target: T1, mouse IL-18BP (amino acids 31-194); test: SPR; KD BP / KD Ra normalized to WT IL-18
[4] = molecular target: T1, mouse IL-18BP (amino acids 31-194); test: on-yeast isotherms; KD IL-18BP / KD IL-18Rα
[5] = molecular target: T1, mouse IL-18BP (amino acids 31-194); test: on-yeast isotherms; KD IL-18BP / KD IL-18Rα (10 µM used for NBD)
[6] = molecular target: T1, mouse IL-18BP (amino acids 31-194); test: SPR; KD IL-18BP / KD IL-18Rα (30 µM used for NBD)
Description: as §1, §2

B1: wild-type mouse IL-18 (mature form) (ligand)
chain: NFGRLHCTTAVIRNINDQVLFVDKRQPVFEDMTDIDQSASEPQTRLIIYMYKDSEVRGLAVTLSVKDSKMSTLSCKNKIISFEEMDPPENIDDIQSDLIFFQKRVPGHNKMEFESSLYEGHFLACQKEDDAFKLILKKKDENGDKSVMFTLTNLHQS
notes: recombinant from E. coli with C-terminal hexahistidine tag in SPR; also called mIL-18 WT; WT mIL-18
With B1 as the binder, how does the “KD ratio: IL-18BP/IL-18Rα” value [1] read?
Its value is 0.00183.

And the “EC50 (read off the curve)” value [2]?
Its value is about 10 nM.

What about the “IL-18 BP:Ra Dissociation Constant Ratio” value [3] of the same binder?
The value was 1.

What about the “KD ratio: IL-18BP/IL-18Rα” value [4] of the same binder?
The value was 0.188.

B2: mE8 (ligand)
chain: NFGRLHCTTAVIRNINDQVLFVDKRQPVFEDMTDIDQSASEPQTRLIIYVYTDGRRRGKAVTLSVKDSKMSTLSCKNKIISFEEMDPPENIDDIQSDLIFFQKKVPGHDKMEFESSLYEGHFLACQKEDDAFKLILKKKDENGDKSVMFTLTNLHQS
notes: recombinant with C-terminal hexahistidine tag in SPR
Which “KD ratio: IL-18BP/IL-18Rα” value [5] does the source give for B2 here?
The value was over 238.

And the “KD ratio: IL-18BP/IL-18Rα” value [6]?
The value was over 17800.
